Target: maltose-binding protein (MBP)-tagged mVP35 IID (Marburg virus, UniProt P35259)
Test: pull-down

Chain of maltose-binding protein (MBP)-tagged mVP35 IID (P35259 200-329): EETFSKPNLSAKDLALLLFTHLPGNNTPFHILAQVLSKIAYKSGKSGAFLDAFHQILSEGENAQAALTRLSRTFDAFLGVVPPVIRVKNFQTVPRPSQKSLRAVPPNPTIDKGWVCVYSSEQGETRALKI

B1: synthetic antigen-binding fragment sFab H3 (Fab, V domains shown)
VH: EVQLVESGGGLVQPGGSLRLSCAASGFNISYYYIHWVRQAPGKGLEWVASIYPYYGYTSYADSVKGRFTISADTSKNTAYLQMNSLRAEDTAVYYCARGSSWYGAHAFDYWGQGTLVTVSS
VL: DIQMTQSPSSLSASVGDRVTITCRASQSVSSAVAWYQQKPGKAPKLLIYSASSLYSGVPSRFSGSRSGTDFTLTISSLQPEDFATYYCQQGYYYAYSLITFGQGTKVEIK
  binding result: binds
